Assay results from patent publication US20170362322A1 (published 2017).
Where two headings read alike, the source gives them in different places. Blank lines part the entries; values can stand above or below the binder they belong to.

Columns and labels:
[1] = biological target: T1, B7-H3 (human); assay: competition ELISA (phage)
T1 chain: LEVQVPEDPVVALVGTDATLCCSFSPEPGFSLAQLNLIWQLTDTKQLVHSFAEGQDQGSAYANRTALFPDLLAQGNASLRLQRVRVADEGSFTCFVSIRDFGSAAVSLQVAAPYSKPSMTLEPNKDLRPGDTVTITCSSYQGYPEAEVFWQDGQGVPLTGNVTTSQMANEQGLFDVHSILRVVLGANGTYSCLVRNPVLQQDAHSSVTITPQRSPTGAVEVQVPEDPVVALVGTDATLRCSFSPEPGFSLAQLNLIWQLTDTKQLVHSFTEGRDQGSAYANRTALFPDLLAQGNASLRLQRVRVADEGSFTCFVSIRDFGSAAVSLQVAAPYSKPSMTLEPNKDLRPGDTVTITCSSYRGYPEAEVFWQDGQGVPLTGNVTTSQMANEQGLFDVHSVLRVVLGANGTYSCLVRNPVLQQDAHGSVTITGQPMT

[2] = biological target: T1, B7-H3; assay: competition ELISA (phage)
[3] = biological target: T1, B7-H3; assay: Octet BLI; conc. 6.25 nM
[4] = biological target: T1, B7-H3; assay: Octet BLI; conc. 3.13 nM
[5] = biological target: T1, B7-H3; assay: Octet BLI; conc. 12.5 nM
[6] = biological target: T1, B7-H3; assay: Octet BLI; conc. 1.56 nM
[7] = biological target: T1, B7-H3; assay: Octet BLI; conc. 25 nM
[8] = biological target: T1, B7-H3; assay: Octet BLI; conc. 100 nM
[9] = biological target: T1, B7-H3; assay: Octet BLI; conc. 50 nM

IC50 [1]: 11.4 nM
B1: 2-8 (antibody, V domains shown)
VH: QVQLQQSGAEVKKPGASVKVSCKASGYTFTNYDINWVRQAPGQGLEWIGWIFPGDGSTQYNEKFKGRATLTTDTSTSTAYMELSSLRSEDTAVYFCARQTTGTWFAYWGQGTLVTVSS
VL: DIVLTQSPATLSLSPGERATLSCRASQSISEYLHWYQQKPGQAPRLLIKHASQSISGIPARFSGSGSGSDFTLTISSLEPEDFAVYYCQNGHSFPLTFGGGTKVEIKR

IC50 [1]: 85 nM
B2: 2-5 (antibody, V domains shown)
VH: QVQLQQSGAEVKKPGASVKVSCKASGYTFTNYDINWVRQAPGQGLEWIGWIFPGDGSTQYNEKFKGRATLTTDTSTSTAYMELSSLRSEDTAVYFCARQTTSTWFAYWGQGTLVTVSS
VL: DIVLTQSPATLSLSPGERATLSCRASQIISDYLHWYQQKPGQAPRLLIKYASQLISGIPARFSGSGSGSDFTLTISSLEPEDFAVYYCQNGHSFPLTFGGGTKVEIKR

IC50 [2]: 10 nM
B3: 1-2 (antibody, V domains shown)
VH: QVQLQQSGAEVKKPGASVKVSCKASGYTFTNYDINWVRQAPGQGLEWIGWIFPGDGSTQYNETFKGRATLTTDTSTSTAYMELSSLRSEDTAVYFCARQTTGTWFAYWGQGTLVTVSS
VL: DIVLTQSPATLSLSPGERATLSCRASQSISKYLHWYQQKPGQAPRLLIKYANQSIRGIPARFSGSGSGSDFTLTISSLEPEDFAVYYCQNGHSFPLTFGGGTKVEIKR

IC50 [2]: 8.8 nM
B4: 1-1 (antibody, V domains shown)
VH: QVQLQQSGAEVKKPGASVKVSCKASGYTFTNYDINWVRQAPGQGLEWIGWIFPGDGSTQYNGKFKGRATLTTDTSTSTAYMELSSLRSEDTAVYFCARQTTGTWFAYWGQGTLVTVSS
VL: DIVLTQSPATLSLSPGERATLSCRASQSISPYLHWYQQKPGQAPRLLIKYASQSWSGIPARFSGSGSGSDFTLTISSLEPEDFAVYYCQNGHSFPLTFGGGTKVEIKR

IC50 [2]: 5.6 nM
B5: 1-4 (antibody, V domains shown)
VH: QVQLQQSGAEVKKPGASVKVSCKASGYTFTNYDINWVRQAPGQGLEWIGWIFPGDGSTQYNPKFKGRATLTTDTSTSTAYMELSSLRSEDTAVYFCARQTTGTWFAYWGQGTLVTVSS
VL: DIVLTQSPATLSLSPGERATLSCRASQSISTYLHWYQQKPGQAPRLLIKEASQSISGIPARFSGSGSGSDFTLTISSLEPEDFAVYYCQNGHSFPLTFGGGTKVEIKR

IC50 [2]: 5.6 nM
B6: 1-7 (antibody, V domains shown)
VH: QVQLQQSGAEVKKPGASVKVSCKASGYTYTNYDINWVRQAPGQGLEWIGWIFPGDGSTQYNEKFKGRATLTTDTSTSTAYMELSSLRSEDTAVYFCARQTTGTWFAYWGQGTLVTVSS
VL: DIVLTQSPATLSLSPGERATLSCRASQSISPYLHWYQQKPGQAPRLLIKHASQSISGIPARFSGSGSGSDFTLTISSLEPEDFAVYYCQNGHSFPLTFGGGTKVEIKR

Kd [3]: 0.0179 nM | Kd [4]: 0.0218 nM | Kd [5]: 0.0234 nM | Kd [6]: 0.0135 nM | Kd [7]: 0.0309 nM | Kd [8]: 0.0884 nM | Kd [9]: 0.0401 nM
B7: 8 (2-8Ig) (antibody, V domains shown)
VH: QVQLQQSGAEVKKPGASVKVSCKASGYTFTNYDINWVRQAPGQGLEWIGWIFPGDGSTQYNEKFKGRATLTTDTSTSTAYMELSSLRSEDTAVYFCARQTTGTWFAYWGQGTLVTVSS
VL: DIVLTQSPATLSLSPGERATLSCRASQSISEYLHWYQQKPGQAPRLLIKHASQSISGIPARFSGSGSGSDFTLTISSLEPEDFAVYYCQNGHSFPLTFGGGTKVEIKR

IC50 [2]: 5.1 nM
B8: 1-5 (antibody, V domains shown)
VH: QVQLQQSGAEVKKPGASVKVSCKASGYTFTNYDINWVRQAPGQGLEWIGWIFPGDGSTQYNEKFKGRATLTTDTSTSTAYMELSSLRSEDTAVYFCARQTTGTWFAYWGQGTLVTVSS
VL: DIVLTQSPATLSLSPGERATLSCRASQSISHYLHWYQQKPGQAPRLLIKYASQSLSGIPARFSGSGSGSDFTLTISSLEPEDFAVYYCQNGHSFPLTFGGGTKVEIKR
